Reference: patent US20260166139A1 (AKESO BIOPHARMA, published 2026)

T1: CTLA4 antigen on the surface of 293F-CTLA4 host cells (UniProt P16410 36-223, limits assumed)
T1 construct: whole, on cells
T1 sequence (looked up): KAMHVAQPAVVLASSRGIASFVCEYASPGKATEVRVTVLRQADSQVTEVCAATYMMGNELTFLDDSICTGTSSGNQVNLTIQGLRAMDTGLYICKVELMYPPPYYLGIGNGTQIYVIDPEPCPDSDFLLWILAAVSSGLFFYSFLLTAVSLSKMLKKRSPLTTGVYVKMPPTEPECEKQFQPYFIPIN

T2: CTLA4 antigen (NCBI Gene ID: 1493) obtained by TEV protease cleavage of CTLA4-mFc (Homo sapiens (Human), UniProt P16410 37-161)
T2 construct: also called the antigen CTLA4
T2 sequence: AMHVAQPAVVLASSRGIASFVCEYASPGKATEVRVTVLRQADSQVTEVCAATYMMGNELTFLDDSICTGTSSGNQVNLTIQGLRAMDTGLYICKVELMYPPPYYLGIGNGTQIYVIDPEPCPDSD

T3: human CTLA4 (human, UniProt P16410 36-161, limits assumed)
T3 construct: also called human CTLA4 antigen; CTLA4 protein
T3 sequence (looked up): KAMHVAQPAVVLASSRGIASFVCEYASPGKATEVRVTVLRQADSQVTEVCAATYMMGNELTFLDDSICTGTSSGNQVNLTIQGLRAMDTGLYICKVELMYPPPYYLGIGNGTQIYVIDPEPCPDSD


What was measured:
[1] = target: T4, CTLA4-mFc; assay: competitive ELISA, competitor B7-1
T4 construct: also called CTLA4ECD-mFc fusion protein; CTLA4 antigen
Description: (§1) After incubation at 37° C. for 40 minutes, the enzyme conjugated secondary antibody was added. After incubation at 37° C. for 30 minutes, the absorbance at 450 nm was detected on an ELISA plate reader.
Target sequence in this assay (chain, as listed by the source limits assumed): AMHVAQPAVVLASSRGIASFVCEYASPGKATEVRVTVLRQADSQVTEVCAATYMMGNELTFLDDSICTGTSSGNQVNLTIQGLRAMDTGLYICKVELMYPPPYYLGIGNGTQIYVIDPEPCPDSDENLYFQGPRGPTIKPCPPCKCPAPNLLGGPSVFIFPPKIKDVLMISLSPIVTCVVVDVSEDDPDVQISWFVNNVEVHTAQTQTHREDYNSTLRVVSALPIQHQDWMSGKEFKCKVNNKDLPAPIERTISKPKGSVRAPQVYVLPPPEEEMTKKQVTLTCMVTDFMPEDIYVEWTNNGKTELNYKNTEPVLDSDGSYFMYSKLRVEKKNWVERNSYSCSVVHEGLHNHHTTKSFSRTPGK

[2] = target: T4, CTLA4-mFc; assay: competitive ELISA, competitor B7-2
Description: as §1
Target sequence in this assay (chain, as listed by the source limits assumed): as above

[3] = target: T1, CTLA4 antigen on the surface of …; assay: flow cytometry, 293F-CTLA4 cells
Description: (§2) After addition of 300 μL PBS, the fluorescent signal was detected using the FITC channel on the flow cytometer.

[4] = target: T1, CTLA4 antigen on the surface of …; assay: flow cytometry, 293F-CTLA4 cells; antibody 1 nM
Description: as §2

[5] = target: T1, CTLA4 antigen on the surface of …; assay: flow cytometry, 293F-CTLA4 cells; antibody 5 nM
Description: as §2

[6] = target: T1, CTLA4 antigen on the surface of …; assay: flow cytometry, 293F-CTLA4 cells; antibody 10 nM
Description: as §2

[7] = target: T1, CTLA4 antigen on the surface of …; assay: flow cytometry, 293F-CTLA4 cells; antibody 25 nM
Description: as §2

[8] = target: T1, CTLA4 antigen on the surface of …; assay: flow cytometry, 293F-CTLA4 cells; antibody 0.1 nM
Description: as §2

[9] = target: T1, CTLA4 antigen on the surface of …; assay: flow cytometry, 293F-CTLA4 cells; antibody 0.01 nM
Description: as §2

[10] = target: T1, CTLA4 antigen on the surface of …; assay: flow cytometry, 293F-CTLA4 cells; antibody 0.001 nM
Description: as §2

[11] = target: T2, CTLA4 antigen (NCBI Gene ID: 1493) …; assay: BLI (Fortebio), antibody on AR2G sensor, CTLA4 in solution
Description: 2. […] After equilibration in PBST, the CTLA4 antigen was added for binding. […] Dissociation occurred in PBST.

[12] = target: T3, human CTLA4; assay: ELISA on coated CTLA4, source Human
Description: (§3) The ELISA plate was coated with CTLA4 at 4° C. over night. […] The enzyme conjugated secondary antibody was added for incubation for 30 min. Then, the absorbance at 450 nm was determined on an ELISA plate reader.

[13] = target: T4, CTLA4-mFc; assay: competitive ELISA, competitor B7-1; third of three tests
Description: as §1

[14] = target: T4, CTLA4-mFc; assay: competitive ELISA, competitor B7-2; first of three tests
Description: as §1

[15] = target: T4, CTLA4-mFc; assay: competitive ELISA, competitor B7-2; third of three tests
Description: as §1

[16] = target: T4, CTLA4-mFc; assay: competitive ELISA, competitor B7-1; second of three tests
Description: as §1

[17] = target: T4, CTLA4-mFc; assay: competitive ELISA, competitor B7-2; second of three tests
Description: as §1

[18] = target: T4, CTLA4-mFc; assay: competitive ELISA, CTLA4-mFc coated, competitor B7/2-His; antibody 1 µg/ml
Description: as §1

[19] = target: T4, CTLA4-mFc; assay: competitive ELISA, competitor B7-1; first of three tests; competitor B7-1; first of three tests, the run with controls 10D1 5.15 nM and 11.2.1 1.073 nM
Description: as §1

[20] = target: T5, monkey CTLA4-hFc (monkey); assay: ELISA on coated CTLA4, source Monkey
T5 construct: also called monkey CTLA4 antigen
Description: as §3

EC50 [1] [nM]	EC50 [2] [nM]	EC50 [3] [nM]	fluorescence intensity [4]	fluorescence intensity [5]	fluorescence intensity [6]	fluorescence intensity [7]	fluorescence intensity [8]	fluorescence intensity [9]	fluorescence intensity [10]	Kd [11] [nM]	koff [11] [s⁻¹]	kon [11] [M⁻¹ s⁻¹]	EC50 [12] [nM]	Binder	further results
		3.84	25.5	183	639	722	9.1	7.7	7.6	0.166	2.36e-05	142000		monoclonal antibody 8D2 (antibody, V domains shown, Murine antibody purified from hybridoma supernatant; also called mAb 8D2; antibody secreted by the CTLA4-8D2 hybridoma cell line LT001) VH: EVKLDETGGGLVQPGRPMKLSCVASGFTFSDNWMNWVRQSPEKGLEWLAQIRNKPYNYETYYSDSVKGRFTISRDDSKSSVYLQMNNLRGEDMGIYYCTAQFAYWGQGTLVTVSA VL: DIQMTQSPASLSASVGETVTITCGTSENIYGGLNWYQRKQGKSPQLLIFGATNLADGMSSRFSGSGSGRQYSLKISSLHPDDVATYYCQNVLRSPFTFGSGTKLEI	
2.14	0.167													humanized antibody 8D2H3L3 (antibody, V domains shown) VH: EVQLVESGGGLVQPGGSLRLSCAASGFTFSDNWMNWVRQAPGKGLEWVAQIRNKPYNYETEYAASVKGRFTISRDDSKNSAYLQMNSLKTEDTAVYYCTAQFAYWGQGTLVTVSS VL: DIQMTQSPSSLSASVGDRVTITCRASENIYGGLNWYQQKPGKAPKLLIYGATSLASGVPSRFSGSGSGTDYTLTISSLQPEDFATYYCQNVLRSPFTFGSGTKLEIK [humanized antibody 8D2H3L3, listing 1 of 2 here]	
		4.54	623	971	1080	1090	108	25.1	10.8	1.05	0.000327	312000	0.129	humanized antibody 8D2H3L3 (antibody, V domains shown) VH: EVQLVESGGGLVQPGGSLRLSCAASGFTFSDNWMNWVRQAPGKGLEWVAQIRNKPYNYETEYAASVKGRFTISRDDSKNSAYLQMNSLKTEDTAVYYCTAQFAYWGQGTLVTVSS VL: DIQMTQSPSSLSASVGDRVTITCRASENIYGGLNWYQQKPGKAPKLLIYGATSLASGVPSRFSGSGSGTDYTLTISSLQPEDFATYYCQNVLRSPFTFGSGTKLEIK [humanized antibody 8D2H3L3, listing 2 of 2 here]	EC50 [20]: 0.385 nM

Second part, the binder before the results:

Binder	EC50 [1] [nM]	EC50 [2] [nM]	EC50 [3] [nM]	fluorescence intensity [4]	fluorescence intensity [5]	fluorescence intensity [6]	fluorescence intensity [7]	fluorescence intensity [8]	fluorescence intensity [9]	fluorescence intensity [10]	Kd [11] [nM]	koff [11] [s⁻¹]	kon [11] [M⁻¹ s⁻¹]	EC50 [12] [nM]	further results
8D2 recombinant antibody, 8D2(Re) (antibody, V domains shown) VH: EVKLDETGGGLVQPGRPMKLSCVASGFTFSDNWMNWVRQSPEKGLEWLAQIRNKPYNYETYYSDSVKGRFTISRDDSKSSVYLQMNNLRGEDMGIYYCTAQFAYWGQGTLVTVSA VL: DIQMTQSPASLSASVGETVTITCGTSENIYGGLNWYQRKQGKSPQLLIFGATNLADGMSSRFSGSGSGRQYSLKISSLHPDDVATYYCQNVLRSPFTFGSGTKLEI [8D2 recombinant antibody, 8D2(Re), listing 1 of 2 here]	0.514	0.153													
8D2 recombinant antibody, 8D2(Re) (antibody, V domains shown) VH: EVKLDETGGGLVQPGRPMKLSCVASGFTFSDNWMNWVRQSPEKGLEWLAQIRNKPYNYETYYSDSVKGRFTISRDDSKSSVYLQMNNLRGEDMGIYYCTAQFAYWGQGTLVTVSA VL: DIQMTQSPASLSASVGETVTITCGTSENIYGGLNWYQRKQGKSPQLLIFGATNLADGMSSRFSGSGSGRQYSLKISSLHPDDVATYYCQNVLRSPFTFGSGTKLEI [8D2 recombinant antibody, 8D2(Re), listing 2 of 2 here]			1.38	321	714	898	873	66.7	24.7	24.6					
humanized antibody 8D2H2L15 (antibody, V domains shown) VH: EVQLVESGGGLVQPGGSMRLSCAASGFTFSDNWMNWVRQAPGKGLEWLAQIRNKPYNYETYYSASVKGRFTISRDDSKNSVYLQMNSLKTEDTGVYYCTAQFAYWGQGTLVTVSS VL: DIQMTQSPSSLSASVGDRVTITCRTSENIYGGLNWYQRKPGKSPKLLIYGATNLASGVSSRFSGSGSGTDYTLTISSLQPEDVATYYCQNVLSRHPGFGSGTKLEIK											1.02	0.000465	454000	0.042	
humanized antibody 8D2H2L2 (antibody, V domains shown, also called 8D2H2L2(20150327); 8D2H2L2(20140422)) VH: EVQLVESGGGLVQPGGSMRLSCAASGFTFSDNWMNWVRQAPGKGLEWLAQIRNKPYNYETYYSASVKGRFTISRDDSKNSVYLQMNSLKTEDTGVYYCTAQFAYWGQGTLVTVSS VL: DIQMTQSPSSLSASVGDRVTITCRTSENIYGGLNWYQRKPGKSPKLLIYGATNLASGVSSRFSGSGSGTDYTLTISSLQPEDVATYYCQNVLRSPFTFGSGTKLEIK															EC50 [13]: 3.12 nM; EC50 [14]: 1.64 nM; EC50 [15]: 0.301 nM; EC50 [16]: 2.97 nM; EC50 [17]: 0.368 nM; absorbance at 450 nm [18]: 0.05; EC50 [19]: 5.93 nM
humanized antibody 8D2H2L17 (antibody, V domains shown) VH: EVQLVESGGGLVQPGGSMRLSCAASGFTFSDNWMNWVRQAPGKGLEWLAQIRNKPYNYETYYSASVKGRFTISRDDSKNSVYLQMNSLKTEDTGVYYCTAQFAYWGQGTLVTVSS VL: DIQMTQSPSSLSASVGDRVTITCRTSENIYGGLNWYQRKPGKSPKLLIYGATNLASGVSSRFSGSGSGTDYTLTISSLQPEDVATYYCQNVLSSRPGFGSGTKLEIK											0.766	0.000352	459000	0.047	
humanized antibody 8D2H1L1 (antibody, V domains shown) VH: EVQLVESGGGLVQPGGSMRLSCAASGFTFSDNWMNWVRQAPGKGLEWLAQIRNKPYNYETYYSDSVKGRFTISRDDSKNSVYLQMNSLKTEDTGVYYCTAQFAYWGQGTLVTVSS VL: DIQMTQSPSSLSASVGDRVTITCRTSENIYGGLNWYQRKQGKSPKLLIYGATNLASGMSSRFSGSGSGTDYTLKISSLHPDDVATYYCQNVLRSPFTFGSGTKLEIK	2.48	0.178													
